T1: recombinant heparanase 8 kDa/50 kDa heterodimer (baculovirus, insect cell expressed) (human, UniProt Q9Y251 36-109; Q9Y251 158-543)
T1 construct: domain: 8 kDa subunit;domain: 50 kDa subunit; Amplified from a mammary gland cDNA library; In one screening ELISA it was biotinylated; also called 8/50 heterodimer protein; purified recombinant heparanase
T1 sequence 1: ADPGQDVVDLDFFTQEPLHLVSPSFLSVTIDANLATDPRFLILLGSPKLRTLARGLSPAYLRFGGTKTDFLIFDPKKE
T1 sequence 2: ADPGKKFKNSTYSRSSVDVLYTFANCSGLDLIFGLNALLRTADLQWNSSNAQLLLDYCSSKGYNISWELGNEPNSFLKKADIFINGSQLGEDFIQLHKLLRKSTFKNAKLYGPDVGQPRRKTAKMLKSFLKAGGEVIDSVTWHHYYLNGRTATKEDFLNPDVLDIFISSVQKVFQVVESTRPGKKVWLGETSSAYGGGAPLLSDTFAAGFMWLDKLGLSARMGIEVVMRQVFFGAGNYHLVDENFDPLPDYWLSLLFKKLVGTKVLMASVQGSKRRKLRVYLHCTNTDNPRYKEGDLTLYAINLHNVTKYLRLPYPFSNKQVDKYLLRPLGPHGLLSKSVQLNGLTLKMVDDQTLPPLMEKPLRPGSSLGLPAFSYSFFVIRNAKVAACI


Key:
[1] = biological target: T1, recombinant heparanase 8 kDa/50 kDa …; test: ELISA on coated recombinant heparanase and on biotin-heparanase captured by streptavidin; hybridoma supernatants
Procedure: To select KM mice producing antibodies that bound heparanase, sera from immunized mice was tested by ELISA as described by Fishwild, D. et al. (1996). Briefly, microtiter plates were coated with purified recombinant heparanase from baculovirus at 1-2 μg /ml in PBS, 50 μl/wells incubated 4° C. overnight then blocked with 200 μl/well of 5% chicken serum in PBS/Tween (0.05%). Dilutions of plasma from heparanase-immunized mice were added to each well and incubated for 1-2 hours at ambient temperature. The plates were washed with PBS/Tween and then incubated with a goat-anti-human IgG Fc polyclonal antibody conjugated with horseradish peroxidase (HRP) for 1 hour at room temperature. After washing, the plates were developed with ABTS substrate (Sigma, A-1 888, 0.22 mg/ml) and analyzed by spectrophotometer at OD 415-495. Mice that developed the highest titers of anti-heparanase antibodies were used for fusions. Fusions were performed as described above and hybridoma supernatants were tested for anti-heparanase activity by ELISA. In order to select antibodies that bind to heparanase enzyme, an ELISA assay as described above and a biotinylated ELISA as described above with following modifications were applied. Briefly, ELISA plates were coated with streptavidin (Sigma catalog number: S-4762) at 1 μg/ml in PBS, 50 ul/well. After overnight incubation at 4° C., the plates were blocked with 200 μl/well of 5% chicken serum in PBS/Tween (0.05%). The plates were then washed with PBS/Tween three times. Biotin-heparanase was added to the plates at 1 μg/ml in PBS, 50 ul/well and then incubated for 1 hour at room temperature. 50 ul/well of the supernatants were then added to the plates and incubated for 1-2 hours at room temperature. The rest of the procedures were exactly the same as described above. Hybridomas secreting a monoclonal antibody that bound with high avidity to heparanase were selected for further characterization for enzymatic, motility and angiogenesis activities.

[2] = biological target: T1, recombinant heparanase 8 kDa/50 kDa …; test: competition binding format

Binder | binding result [1] | binding result [2]
human monoclonal antibody 5G10 (antibody, V domains shown, Human IgG kappa from a KM mouse hybridoma; subclass not reported) VH: QVQLVQSGAEVKKPGASVKVSCKVSGYTLTELSMHWVRQAPGKGLEWMGGFDPEDGETIYAQKFQGRVTMTEDTSTDTAYMELSSLRSEDTAVYYCATESLVRYFDWLSHFDYWGQGTLVTVSS VL: DIQMTQSPSSLSASVGDRVTITCRASQGISSWLAWYQQKPEKAPKSLIYAASSLQSGVPSRFSGSGSGTDFTLTISSLQPEDFATYYCQQYNSYPYTFGQGTKLEIK | binds | –
human monoclonal antibody 13B2 (antibody, V domains shown, Human IgG kappa from a KM mouse hybridoma; subclass not reported) VH: EVQLVESGGGLVQPGGSLRLSCAASGFTFSSYWMSWVRQAPGKGLEWVASIYQDGSEKYYVDSVKGRFTISRDNAKNSLYLQMNSLRAEDTAMYYCARELDWGWDYWGQGTLVTVSS VL: AIQLTQSPSSLSASVGDRVTITCRASQGISSALAWYQQKPGKAPKLLIYDASSLESGVPSRFSGSGSGTDFTLTISSLQPEDFATYYCQQFNSYPITFGQGTRLEIK | binds | –
human monoclonal antibody 2H8 (antibody, V domains shown, Human IgG kappa from a KM mouse hybridoma; subclass not reported) VH: QVQLVQSGAEVKKPGASVKVSCKVSGYTLTELSMHWVRQAPGKGLEWMGGFDPEDGETIYAQKFQDRVTMTEDTSTDTAYMELSSLRSEDTAVYYCTTESLVRYFDWLSHFDYWGQGTLVTVSS VL: DIQMTQSPSSLSASVGDRVTITCRASQGISSWLAWYQQKPEKAPKSLIYAASSLQSGVPSRFSGSGSGTDFTLTISSLQPEDFATYYCQQYNSYPYTFGQGTKLEIK | binds | –

The remaining lines, values ahead:

binding result [1] | binding result [2] | Binder
binds | – | human monoclonal antibody 1E7 (antibody, V domains shown, Human IgG kappa from a KM mouse hybridoma; subclass not reported) VH: EVQLVESGGGLVQPGGSLRLSCAASGFTFSSYWMSWVRQAPGKGLEWVASIYQDGSEKYYVDSVKGRFTISRDNAKNSLYLQMNSLRAEDTAVYYCARELDWGWDYWGQGTLVTVSS VL: AIQLTQSPSSLSASVGDRVTITCRASQGISSALAWYQQKPGKAPKLLIYDASSLESGVPSRFSGSGSGTDFTLTISSLQPEDFATYYCQQFNSYPITFGQGTRLEIK
– | binds | human monoclonal antibody 22D9 (antibody, V domains shown, Fully human IgG with kappa light chain from a KM mouse hybridoma, purified by Protein A) VH: QVQLVQSGAEVKKPGASVKVSCKVSGYTLTELSMHWVRQAPGKGLEWMGGFDPEDGETIYAQKFQGRVTMTEDTSTDTAYMELSSLRSDDTAVYYCATESLVRYFDWLSHFDYWGQGTLVTVSS VL: DIQMTQSPSSLSASVGDRVTITCRASQGISSWLAWYQQKPEKAPKSLIYAASSLQSGVPSRFSGSGSGTDFTLTISSLQPEDFATYYCQQYNSYPYTFGQGTKLEIK

Reference: patent US20040170630A1 (published 2004)
